Our source for the binding signal values is publication PMC6555819, “Comprehensive study of nuclear receptor DNA binding provides a revised framework for understanding receptor specificity”.

The target of data set [1] is RXRa (Homo sapiens, UniProt P19793). In words: no ligand; PBM; 180 nM; PBS pH 7.4, 2% milk, 0.02% Triton X-100, 1 mM DTT, BSA, 0.4 mg/ml salmon testes DNA. To be noted: tags: His cleaved; chain copies: 2; label: surface-attached array probe.
The target of data set [2] is PPARa:RXRa (Homo sapiens, UniProt Q07869;P19793 full;full). In words: no ligand; PBM; 270 nM : 90 nM RXRa; PBS pH 7.4, 2% milk, 0.02% Triton X-100, 1 mM DTT, BSA, 0.4 mg/ml salmon testes DNA. The following applies: tags: GST kept;His cleaved; copies: 1;1; label: surface-attached array probe. The method in brief:
(§1)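 Binding z-scores were set against random background probes. The data came from custom Agilent 4×180K protein-binding microarrays carrying double-stranded probes with 34-nt variable regions, incubated 1 h with ligand-free nuclear receptor dimers. Partner-specific antibodies detected binding, and scanned fluorescence was regression-normalized.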

Data set [3] addresses RARb:RXRa (Homo sapiens, UniProt P10826;P19793 full;full). The description is as above. To be noted: tags: His kept;His cleaved; copies: 1;1; label: surface-attached array probe. The method in brief: as §1
For data set [4], the target named is RARg:RXRa (Homo sapiens, UniProt P13631;P19793 full;full). The description is as above. The following applies: tags: His kept;His cleaved; copies: 1;1; label: surface-attached array probe. An outline of the steps:
as §1

Data set [5] has as its target FXR:RXRa (Homo sapiens, UniProt Q96RI1;P19793 full;full). The description is as above. The following applies: tags: His kept;His cleaved; copies: 1;1; label: surface-attached array probe. An outline of the steps:
as §1

In data set [6] the target is VDR:RXRa (Homo sapiens, UniProt P11473;P19793 full;full). Described as above. The following applies: tags: His kept;His cleaved; copies: 1;1; label: surface-attached array probe. The method in brief: as §1
Sequence of VDR:RXRa (P11473 whole entry, chain 1 of 2): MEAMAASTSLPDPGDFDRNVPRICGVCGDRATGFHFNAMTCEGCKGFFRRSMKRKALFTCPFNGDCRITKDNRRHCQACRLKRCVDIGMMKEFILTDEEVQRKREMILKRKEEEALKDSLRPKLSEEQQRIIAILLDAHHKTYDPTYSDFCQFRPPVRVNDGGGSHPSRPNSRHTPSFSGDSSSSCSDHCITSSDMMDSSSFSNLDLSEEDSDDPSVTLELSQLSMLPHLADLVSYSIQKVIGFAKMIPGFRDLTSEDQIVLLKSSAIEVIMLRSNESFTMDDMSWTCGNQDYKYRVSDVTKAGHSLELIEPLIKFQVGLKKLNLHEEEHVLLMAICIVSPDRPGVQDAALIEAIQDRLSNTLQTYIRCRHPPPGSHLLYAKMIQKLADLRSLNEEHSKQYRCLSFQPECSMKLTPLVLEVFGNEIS
Sequence of VDR:RXRa (P19793 whole entry, chain 2 of 2): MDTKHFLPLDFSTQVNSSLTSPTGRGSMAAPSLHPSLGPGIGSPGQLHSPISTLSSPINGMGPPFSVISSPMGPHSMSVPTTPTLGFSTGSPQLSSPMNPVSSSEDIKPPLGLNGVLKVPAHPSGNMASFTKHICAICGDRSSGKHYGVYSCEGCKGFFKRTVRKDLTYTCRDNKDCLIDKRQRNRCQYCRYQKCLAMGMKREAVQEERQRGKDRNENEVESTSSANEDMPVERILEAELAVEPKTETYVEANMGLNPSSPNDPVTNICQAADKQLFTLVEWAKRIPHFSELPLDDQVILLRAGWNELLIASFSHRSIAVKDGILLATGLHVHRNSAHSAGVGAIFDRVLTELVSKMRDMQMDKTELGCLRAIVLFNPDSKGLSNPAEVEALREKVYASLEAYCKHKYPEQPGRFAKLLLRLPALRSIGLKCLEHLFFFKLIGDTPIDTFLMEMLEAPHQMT

Sequence of RXRa (P19793 whole entry): as the sequence (P19793 whole entry, chain 2 of 2) above
Sequence of RARb:RXRa (P10826 whole entry, chain 1 of 2): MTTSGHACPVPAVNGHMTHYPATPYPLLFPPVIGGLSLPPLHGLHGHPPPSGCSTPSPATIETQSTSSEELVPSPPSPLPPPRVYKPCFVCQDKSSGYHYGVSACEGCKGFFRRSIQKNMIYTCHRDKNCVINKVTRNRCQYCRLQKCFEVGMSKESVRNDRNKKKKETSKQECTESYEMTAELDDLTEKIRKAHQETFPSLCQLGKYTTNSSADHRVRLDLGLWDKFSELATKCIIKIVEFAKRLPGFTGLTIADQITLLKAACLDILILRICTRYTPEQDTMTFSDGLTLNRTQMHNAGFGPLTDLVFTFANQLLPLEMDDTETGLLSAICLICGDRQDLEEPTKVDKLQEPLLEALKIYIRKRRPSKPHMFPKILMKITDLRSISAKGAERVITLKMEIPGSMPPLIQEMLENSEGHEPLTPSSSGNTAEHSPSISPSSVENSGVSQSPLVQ
Sequence of RARb:RXRa (P19793 whole entry, chain 2 of 2): as the sequence (P19793 whole entry, chain 2 of 2) above
Sequence of PPARa:RXRa (Q07869 whole entry, chain 1 of 2): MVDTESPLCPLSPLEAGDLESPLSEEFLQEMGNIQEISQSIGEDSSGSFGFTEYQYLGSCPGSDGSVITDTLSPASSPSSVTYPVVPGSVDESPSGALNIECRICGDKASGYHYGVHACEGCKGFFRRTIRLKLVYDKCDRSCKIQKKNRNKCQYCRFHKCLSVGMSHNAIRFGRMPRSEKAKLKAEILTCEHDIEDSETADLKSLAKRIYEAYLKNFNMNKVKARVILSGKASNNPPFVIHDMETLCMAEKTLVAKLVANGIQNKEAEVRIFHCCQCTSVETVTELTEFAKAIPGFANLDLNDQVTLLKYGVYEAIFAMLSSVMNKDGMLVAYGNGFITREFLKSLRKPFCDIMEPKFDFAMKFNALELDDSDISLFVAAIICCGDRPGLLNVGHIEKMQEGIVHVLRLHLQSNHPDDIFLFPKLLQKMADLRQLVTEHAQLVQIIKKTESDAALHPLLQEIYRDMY
Sequence of PPARa:RXRa (P19793 whole entry, chain 2 of 2): as the sequence (P19793 whole entry, chain 2 of 2) above
Sequence of FXR:RXRa (Q96RI1 whole entry, chain 1 of 2): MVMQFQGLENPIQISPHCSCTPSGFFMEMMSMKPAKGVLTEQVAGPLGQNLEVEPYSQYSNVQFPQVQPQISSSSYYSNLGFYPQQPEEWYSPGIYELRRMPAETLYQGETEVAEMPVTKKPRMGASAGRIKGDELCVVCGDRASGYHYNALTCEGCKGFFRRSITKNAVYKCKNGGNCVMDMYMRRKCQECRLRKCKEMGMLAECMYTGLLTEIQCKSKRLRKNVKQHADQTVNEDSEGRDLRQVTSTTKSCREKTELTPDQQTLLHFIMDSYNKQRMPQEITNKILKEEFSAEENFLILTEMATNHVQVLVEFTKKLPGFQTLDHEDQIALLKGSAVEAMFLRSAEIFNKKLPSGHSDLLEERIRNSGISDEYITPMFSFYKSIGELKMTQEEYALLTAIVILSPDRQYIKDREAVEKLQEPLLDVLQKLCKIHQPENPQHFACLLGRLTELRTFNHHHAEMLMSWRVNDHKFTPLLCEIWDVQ
Sequence of FXR:RXRa (P19793 whole entry, chain 2 of 2): as the sequence (P19793 whole entry, chain 2 of 2) above
Sequence of RARg:RXRa (P13631 whole entry, chain 1 of 2): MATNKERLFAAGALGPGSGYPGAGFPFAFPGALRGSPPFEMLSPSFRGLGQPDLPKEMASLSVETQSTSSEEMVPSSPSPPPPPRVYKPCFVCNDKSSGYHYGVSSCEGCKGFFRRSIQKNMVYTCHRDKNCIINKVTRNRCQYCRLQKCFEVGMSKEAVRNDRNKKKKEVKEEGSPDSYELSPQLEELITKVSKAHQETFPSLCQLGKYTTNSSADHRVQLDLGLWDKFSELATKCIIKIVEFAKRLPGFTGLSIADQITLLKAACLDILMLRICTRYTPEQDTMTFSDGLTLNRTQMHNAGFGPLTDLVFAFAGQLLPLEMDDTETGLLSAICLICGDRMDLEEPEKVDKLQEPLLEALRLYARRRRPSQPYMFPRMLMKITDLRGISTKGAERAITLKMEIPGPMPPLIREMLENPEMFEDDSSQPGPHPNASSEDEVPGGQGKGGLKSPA
Sequence of RARg:RXRa (P19793 whole entry, chain 2 of 2): as the sequence (P19793 whole entry, chain 2 of 2) above

B1: NRC3_random_hg19_95_o1 (dsDNA)
DNA 1: GCATCTTCAGTATGTTTCATTCAGTAGCTCAGTGGCGCGATTGACAGCGTAGAATGAAGG
DNA 2: CCTTCATTCTACGCTGTCAATCGCGCCACTGAGCTACTGAATGAAACATACTGAAGATGC
As for B1, the binding signal was -0.26 PBM z-score against 500 random probes in data set [1] and -0.24 PBM z-score against 500 random probes in data set [2].

B2: NRC3_random_hg19_443_o1 (dsDNA)
DNA 1: GCTAGTACTTGGTCCATAGCACTACTACTCACTTTGGCGATTGACAGCGTAGAATGAAGG
DNA 2: CCTTCATTCTACGCTGTCAATCGCCAAAGTGAGTAGTAGTGCTATGGACCAAGTACTAGC
Turning to B2, the results for the binding signal in data set [1], in data set [3] and in data set [2] were 0.04 PBM z-score against 500 random probes, -0.05 PBM z-score against 500 random probes and -0.32 PBM z-score against 500 random probes, respectively.

B3: NRC3_random_hg19_34_o1 (dsDNA)
DNA 1: GCATGATGCCTCCTTGGAGAAGTCCTGCATTCATCCGCGATTGACAGCGTAGAATGAAGG
DNA 2: CCTTCATTCTACGCTGTCAATCGCGGATGAATGCAGGACTTCTCCAAGGAGGCATCATGC
As for B3, in data set [1], the binding signal is -0.46 PBM z-score against 500 random probes.

B4: NRC3_wobSeed27_DR1_G22C_o1 (dsDNA)
DNA 1: GCACTCGGAGGACAAAGGTCACAGCTACGCCAGTGAGCGATTGACAGCGTAGAATGAAGG
DNA 2: CCTTCATTCTACGCTGTCAATCGCTCACTGGCGTAGCTGTGACCTTTGTCCTCCGAGTGC
As for B4, the figures for the binding signal in data set [1] and in data set [4] were 8.07 PBM z-score against 500 random probes and 7.47 PBM z-score against 500 random probes, respectively.

B5: NRC3_random_hg19_366_o1 (dsDNA)
DNA 1: GCACTACTACTGCTGTTGAGAAACCTGCATTGTGGCGCGATTGACAGCGTAGAATGAAGG
DNA 2: CCTTCATTCTACGCTGTCAATCGCGCCACAATGCAGGTTTCTCAACAGCAGTAGTAGTGC
Take B5: the binding signal in data set [1] is -0.56 PBM z-score against 500 random probes.

B6: NRC3_random_hg19_45_o1 (dsDNA)
DNA 1: GCAAACACAAAGTTTGGGCTGCCTTCTCTAGAGATTGCGATTGACAGCGTAGAATGAAGG
DNA 2: CCTTCATTCTACGCTGTCAATCGCAATCTCTAGAGAAGGCAGCCCAAACTTTGTGTTTGC
For the molecule B6, the binding signal in data set [1] is -0.51 PBM z-score against 500 random probes; in data set [3], -0.19 PBM z-score against 500 random probes.

B7: NRC3_random_hg19_21_o1 (dsDNA)
DNA 1: GCAACATTTCAGTATACTTTCTAGCAACTCTGGGTAGCGATTGACAGCGTAGAATGAAGG
DNA 2: CCTTCATTCTACGCTGTCAATCGCTACCCAGAGTTGCTAGAAAGTATACTGAAATGTTGC
Consider B7, for which the binding signal in data set [1] was 0.34 PBM z-score against 500 random probes; in data set [2], 0.2 PBM z-score against 500 random probes.

B8: NRC3_wobSeed13_DR0_A8G_o1 (dsDNA)
DNA 1: GCCGTCCGAGGTCAAGGTCAGTGAAAGAGACTCGAAGCGATTGACAGCGTAGAATGAAGG
DNA 2: CCTTCATTCTACGCTGTCAATCGCTTCGAGTCTCTTTCACTGACCTTGACCTCGGACGGC
As to B8, the binding signal in data set [1] is 8 PBM z-score against 500 random probes; in data set [2], 6.49 PBM z-score against 500 random probes; in data set [5], 8.4 PBM z-score against 500 random probes; in data set [4], 7.45 PBM z-score against 500 random probes.

B9: NRC3_wobSeed61_DR2_G10C_o1 (dsDNA)
DNA 1: GCCGTCCAACGTCAGCAGGTCAGTGAAAGCGACGTGGCGATTGACAGCGTAGAATGAAGG
DNA 2: CCTTCATTCTACGCTGTCAATCGCCACGTCGCTTTCACTGACCTGCTGACGTTGGACGGC
B9: the binding signal in data set [1] is 0.42 PBM z-score against 500 random probes; in data set [2] it was 0.49 PBM z-score against 500 random probes.

B10: NRC3_random_hg19_226_o1 (dsDNA)
DNA 1: GCCATCCCATTTCTCTTCCCAAGGGATTTGAAAGAGGCGATTGACAGCGTAGAATGAAGG
DNA 2: CCTTCATTCTACGCTGTCAATCGCCTCTTTCAAATCCCTTGGGAAGAGAAATGGGATGGC
Consider B10, for which the values for the binding signal in data set [1] and in data set [4] were -0.08 PBM z-score against 500 random probes and -0.16 PBM z-score against 500 random probes, respectively.

B11: NRC3_wobSeed53_DR2_C8A_o1 (dsDNA)
DNA 1: GCCCTTAAGGGTCACGAGGTTATAGCACGACGAGCGGCGATTGACAGCGTAGAATGAAGG
DNA 2: CCTTCATTCTACGCTGTCAATCGCCGCTCGTCGTGCTATAACCTCGTGACCCTTAAGGGC
B11: the binding signal is 8.38 PBM z-score against 500 random probes in data set [1]; 6 PBM z-score against 500 random probes in data set [3]; 7.03 PBM z-score against 500 random probes in data set [2]; 8.42 PBM z-score against 500 random probes in data set [5]; 7.41 PBM z-score against 500 random probes in data set [4].

B12: NRC3_wobSeed77_DR3_G20T_o1 (dsDNA)
DNA 1: GCACTTACGGGTCAACGAGTTTATAGCACGCGTATAGCGATTGACAGCGTAGAATGAAGG
DNA 2: CCTTCATTCTACGCTGTCAATCGCTATACGCGTGCTATAAACTCGTTGACCCGTAAGTGC
On to B12, for which, in data set [6], the binding signal is 8.27 PBM z-score against 500 random probes.

B13: NRC3_random_hg19_376_o1 (dsDNA)
DNA 1: GCTTCCTCTTCCTCTGTGCCTGTGTAGCCTCCATCCGCGATTGACAGCGTAGAATGAAGG
DNA 2: CCTTCATTCTACGCTGTCAATCGCGGATGGAGGCTACACAGGCACAGAGGAAGAGGAAGC
On to B13, for which the binding signal in data set [1] is -0.77 PBM z-score against 500 random probes.

B14: NRC3_random_hg19_248_o1 (dsDNA)
DNA 1: GCGTGTTCTACTGTACTGCAGCTGAGCCGACACTCAGCGATTGACAGCGTAGAATGAAGG
DNA 2: CCTTCATTCTACGCTGTCAATCGCTGAGTGTCGGCTCAGCTGCAGTACAGTAGAACACGC
B14: the binding signal was -0.43 PBM z-score against 500 random probes in data set [1] and -0.34 PBM z-score against 500 random probes in data set [4].

B15: NRC3_random_hg19_63_o1 (dsDNA)
DNA 1: GCTTTCAAGGCAGTAAGAGTTTGCTGTGCATCAGCTGCGATTGACAGCGTAGAATGAAGG
DNA 2: CCTTCATTCTACGCTGTCAATCGCAGCTGATGCACAGCAAACTCTTACTGCCTTGAAAGC
Turning to B15, the values for the binding signal in data set [1] and in data set [3] were -1.05 PBM z-score against 500 random probes and -0.61 PBM z-score against 500 random probes, respectively.

B16: NRC3_wobSeed88_DR3_o1 (dsDNA)
DNA 1: GCTAGCCTAGGTCATGCGGGCCAGTATAGTGTCGGCGCGATTGACAGCGTAGAATGAAGG
DNA 2: CCTTCATTCTACGCTGTCAATCGCGCCGACACTATACTGGCCCGCATGACCTAGGCTAGC
Turning to B16, the results for the binding signal in data set [1] and in data set [2] were 3.04 PBM z-score against 500 random probes and 3.33 PBM z-score against 500 random probes, respectively.

B17: NRC3_wobSeed97_DR4_T8C_o1 (dsDNA)
DNA 1: GCCAAACCAGGTCACGAAAGGTCAAAGTCGAATGACGCGATTGACAGCGTAGAATGAAGG
DNA 2: CCTTCATTCTACGCTGTCAATCGCGTCATTCGACTTTGACCTTTCGTGACCTGGTTTGGC
For the molecule B17, the binding signal in data set [1] was 9.26 PBM z-score against 500 random probes; in data set [4], 8.22 PBM z-score against 500 random probes.

B18: NRC3_wobSeed109_DR4_T15C_o1 (dsDNA)
DNA 1: GCCGTCCAAGGTCACAGGAGGTCAGTGAAGACAGATGCGATTGACAGCGTAGAATGAAGG
DNA 2: CCTTCATTCTACGCTGTCAATCGCATCTGTCTTCACTGACCTCCTGTGACCTTGGACGGC
Regarding B18, the binding signal in data set [1] is 7.9 PBM z-score against 500 random probes; in data set [3], 5.7 PBM z-score against 500 random probes; in data set [4] it was 7.39 PBM z-score against 500 random probes.

B19: NRC3_random_hg19_79_o1 (dsDNA)
DNA 1: GCCAGTGTCCTCCTGAGAATTGGTTGTGTTGGGCAGGCGATTGACAGCGTAGAATGAAGG
DNA 2: CCTTCATTCTACGCTGTCAATCGCCTGCCCAACACAACCAATTCTCAGGAGGACACTGGC
B19: in data set [1], the binding signal is -0.79 PBM z-score against 500 random probes.

B20: NRC3_random_hg19_160_o1 (dsDNA)
DNA 1: GCATCCCTGCAATGGCCTGCAAAGTTACAGGTTGCAGCGATTGACAGCGTAGAATGAAGG
DNA 2: CCTTCATTCTACGCTGTCAATCGCTGCAACCTGTAACTTTGCAGGCCATTGCAGGGATGC
Regarding B20, the binding signal in data set [1] was -0.41 PBM z-score against 500 random probes.

B21: NRC3_wobSeed63_DR2_T8G_o1 (dsDNA)
DNA 1: GCCGAACGAGGTCACCAGGACAGTGAAGAGGTTGGAGCGATTGACAGCGTAGAATGAAGG
DNA 2: CCTTCATTCTACGCTGTCAATCGCTCCAACCTCTTCACTGTCCTGGTGACCTCGTTCGGC
As for B21, the binding signal in data set [1] was 7.78 PBM z-score against 500 random probes; in data set [3], 5.63 PBM z-score against 500 random probes; in data set [2] it was 6.82 PBM z-score against 500 random probes; in data set [5], 7.97 PBM z-score against 500 random probes.

B22: NRC3_random_hg19_375_o1 (dsDNA)
DNA 1: GCCAGAAGAGGAGAAGACACATAAGAAGAGGAAGTCGCGATTGACAGCGTAGAATGAAGG
DNA 2: CCTTCATTCTACGCTGTCAATCGCGACTTCCTCTTCTTATGTGTCTTCTCCTCTTCTGGC
As to B22, the figures for the binding signal in data set [1] and in data set [5] were 0.13 PBM z-score against 500 random probes and 0.5 PBM z-score against 500 random probes, respectively.

B23: NRC3_random_hg19_114_o1 (dsDNA)
DNA 1: GCCAAGGCAGCCAGAACTGATGATTGCACTGTGTGGGCGATTGACAGCGTAGAATGAAGG
DNA 2: CCTTCATTCTACGCTGTCAATCGCCCACACAGTGCAATCATCAGTTCTGGCTGCCTTGGC
For B23, the binding signal in data set [1] is -0.24 PBM z-score against 500 random probes; in data set [3] it was -1.11 PBM z-score against 500 random probes.

B24: NRC3_wobSeed73_DR3_G20T_o1 (dsDNA)
DNA 1: GCCAAACTAGGTCACAGAGTTCAAAGTCCGTGCGTAGCGATTGACAGCGTAGAATGAAGG
DNA 2: CCTTCATTCTACGCTGTCAATCGCTACGCACGGACTTTGAACTCTGTGACCTAGTTTGGC
With B24, the binding signal in data set [6] was 8.45 PBM z-score against 500 random probes.
